The source of these data is PMC9582199, “Molecular architecture of the glycogen- committed PP1/PTG holoenzyme” (Nature Communications, 2022).

Like-named read-outs stand apart in the source and are kept apart here.

The target in assay [1] is GM CBM21. Particulars: cited from earlier work. The text has this:
The same two sugar-binding sites have been identified in the crystal structures of Rhizopus oryzae CBM21[13],[14]; site II is the primary binding site, while site I has been hypothesized to contribute to the binding of long-chain soluble polysaccharides and insoluble starch or to the relaxation and unwinding of helical amylose[15],[16].

The target of assay [2] is PP1 (Homo sapiens) (UniProt P62136). The settings on record: cited from earlier work.
The target is the same in assay [3]. Particulars: cited from earlier work. This is another data set of the same source.
The target in assay [4] is 6xHis-tagged PP1^7-330 (UniProt P62136 7-330, Mn2+ in active site (expressed and purified with MnCl2); N-terminal 6xHis tag used for capture, left out. Alpha isoform taken from the authors' PDB entries 7QFB/7QM2 and the residue numbering). As to the kind of experiment: grating-coupled interferometry (GCI); 6xHis-tagged PP1 7-330 reversibly captured on 4PCP-NTA WAVE chip (3600 or 1600 pg/mm^2); peptides injected, 1:2 dilution series from 300 nM; 25 °C; 10 mM Hepes pH 7.2, 150 mM NaCl, 0.005% Tween 20, 0.2 mg/ml BSA; mass transport binding model. Particulars: both partners purified.

The target of assay [5] is T1, 6xHis-tagged PP1 7-330 (human, UniProt P62136 7-330).
T1 construct: Serine/threonine-protein phosphatase PP1-alpha catalytic subunit, human, UniProt P62136, residues 7-330; Captured by its His tag on 4PCP-NTA chips; a TEV site lies between tag and protein; source: E. coli BL21 (DE3) pGro7, purified (Ni-NTA, SEC); not shown: His6, N-terminal, kept
The experiment in a line: grating-coupled interferometry (GCI); 6xHis-tagged PP1 7-330 captured on 4PCP-NTA WAVE chips (3600 pg/mm2 for PTG 81-107, 1600 pg/mm2 for PTG 81-132); peptides injected, 1:2 dilution series from 300 nM; 10 mM Hepes pH 7.2, 150 mM NaCl, 0.005% Tween 20, 0.2 mg/ml BSA; 25 °C; 100 µl/min; mass transport binding model. The settings on record: both partners purified.

The target of assay [6] is T2, PP1 7-330 (Serine/threonine-protein phosphatase PP1-alpha catalytic subunit, residues 7-330) (human, UniProt P62136 7-330).
T2 construct: Serine/threonine-protein phosphatase PP1-alpha catalytic subunit, human, UniProt P62136, residues 7-330; source: E. coli BL21 (DE3) pGro7, purified (Ni-NTA, SEC)
As to the kind of experiment: grating-coupled interferometry (GCI); PTG 70-264 immobilised by amine coupling on a 4PCH WAVE chip at 1000 pg/mm2; PP1 7-330 injected, 1:2 dilution series from 400 nM; 10 mM Hepes pH 7.2, 150 mM NaCl, 0.005% Tween 20; 25 °C; 30 µl/min; mass transport binding model. The settings on record: both partners purified.

For assay [7], the target named is T3, PP1 7-330 (Homo sapiens, UniProt P62136).
T3 construct: reversibly capturing 6xHis-tagged PP1^7-330; host or cells: E. coli BL21 (DE3) pGro7
The experiment in a line: GCI binding of immobilized PTG constructs to PP1 as analyte. The settings on record: GCI titrations, compared with PTG peptides 81–107 and 81–132. On the procedure: Grating-coupled interferometry (GCI) experiments were performed using the Creoptix WAVE system, a new generation instrument for the high-sensitivity kinetics and affinity analysis of label-free molecular interactions based on the waveguide interferometry technology. Waveguide interferometry exceeds the sensitivity levels of Surface Plasmon Resonance (SPR). […] GCI allows getting high resolution even at very low signal levels with low noise without artificial data averaging and reliable kinetics below 1 pg/mm^2. By the lower immobilization levels that are required, it avoids mass transport limitations. It covers the broadest kinetic range with the capability of analyzing of the ultra-fast transition times (i.e. 150 ms). It allows the reliable determination of off-rates of 5 s^–1 and even faster, enabling off-rate screening of weakly binding analytes. GCI can be applied to a wide range of pharmacological targets, with improved results on very low molecular weight compounds, to the dimensions of metal ions[56].
WAVE chips are composed of four channels or cells. Borate buffer (100 mM sodium borate pH 9.0, 1 M NaCl) was used for chip conditioning. To evaluate the kinetics of the PTG interaction with β-cyclodextrin and PP1, PTG^70-264 (20 µg/ml in buffer acetate pH 5.0) was immobilized on 4PCH WAVE chips (quasiplanar polycarboxylate surface; Creoptix) by standard amine coupling according to the manufacturer’s instructions at a density of 1800 pg/mm^2 and 1000 pg/mm^2 for β-cyclodextrin and PP1^7-330, respectively (Supplementary Figs. 8, 9). Regeneration-free injections of a 1:3 dilution series from 500 µM for β-cyclodextrin in running buffer (10 mM Hepes pH 7.2, 150 mM NaCl, 0.005% Tween 20) were performed at 25 °C, using a flow rate of 100 μl/min. Similarly, regeneration-free injections of a 1:2 dilution series from 400 nM for PP1^7-330 in the same running buffer were performed at 25 °C, using a flow rate of 30 μl/min. […]
Supplementary Figure 3: Quantitative binding kinetics by GCI. […]

T1 sequence (P62136 7-330): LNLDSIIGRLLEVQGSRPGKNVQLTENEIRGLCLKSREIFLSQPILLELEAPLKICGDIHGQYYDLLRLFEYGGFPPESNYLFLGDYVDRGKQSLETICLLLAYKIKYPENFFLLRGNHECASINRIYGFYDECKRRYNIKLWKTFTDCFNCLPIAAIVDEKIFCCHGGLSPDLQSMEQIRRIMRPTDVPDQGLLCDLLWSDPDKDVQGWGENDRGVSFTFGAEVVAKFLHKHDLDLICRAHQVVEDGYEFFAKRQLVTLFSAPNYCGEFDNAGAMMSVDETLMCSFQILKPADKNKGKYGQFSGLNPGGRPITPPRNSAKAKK
T2 sequence (P62136 7-330): as above
T3 sequence (P62136 7-330): as above
PP1 (Homo sapiens), sequence (P62136 2-330): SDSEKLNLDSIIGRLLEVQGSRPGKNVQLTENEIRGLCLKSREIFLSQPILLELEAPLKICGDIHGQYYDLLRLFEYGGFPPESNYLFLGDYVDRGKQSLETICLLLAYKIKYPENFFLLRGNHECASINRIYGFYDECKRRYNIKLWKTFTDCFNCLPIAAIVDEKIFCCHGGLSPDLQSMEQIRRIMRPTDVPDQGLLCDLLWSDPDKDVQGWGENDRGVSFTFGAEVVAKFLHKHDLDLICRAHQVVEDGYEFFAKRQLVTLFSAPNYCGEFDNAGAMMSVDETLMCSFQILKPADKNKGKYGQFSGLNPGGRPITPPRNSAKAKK
6xHis-tagged PP1^7-330, sequence (P62136 7-330): as the sequence (P62136 7-330) above

By Kd is commonly meant the free concentration of one partner at which half of the binding sites on the other are occupied at equilibrium, for simple one-to-one binding. As for `OC[C@H]1O[C@@H]2O[C@H]3[C@H](O)[C@@H](O)[C@@H](O[C@H]4[C@H](O)[C@@H](O)[C@@H](O[C@H]5[C@H](O)[C@@H](O)[C@@H](O[C@H]6[C@H](O)[C@@H](O)[C@@H](O[C@H]7[C@H](O)[C@@H](O)[C@@H](O[C@H]1[C@H](O)[C@H]2O)O[C@@H]7CO)O[C@@H]6CO)O[C@@H]5CO)O[C@@H]4CO)O[C@@H]3CO` [α-cyclodextrin], the equilibrium dissociation constant (Kd) in assay [1] is 27600 nM. Take GM 64-105 (from UniProt Q00756): the Kd in assay [2] is 114 nM. In the case of GM 64-237 (from UniProt Q00756), the dissociation constant (Kd) in assay [3] was 21 nM.

B1: PTG peptide 81-107 (peptide, UniProt Q9UQK1 81-107, looked up)
peptide: AKKRVVFADSKGLSLTAIHVFSDLPEE
notes: also called PTG N-terminal peptide; source: synthetic peptide, bought: ProteoGenix SAS
In assay [4], B1 gave a Kd of 14 nM.

B2: PTG peptide 81-132 (peptide, UniProt Q9UQK1 81-132, looked up)
peptide: AKKRVVFADSKGLSLTAIHVFSDLPEEPAWDLQFDLLDLNDISSALKHHEEK
notes: also called peptide 2; source: synthetic peptide, bought: ProteoGenix SAS
The term koff denotes the first-order rate constant of dissociation. As a reminder, the kon is the second-order rate constant of association. Read a high kon as faster complex formation. In assay [5], B2 returned a dissociation constant (Kd) of 7.7 nM, a koff of 0.0026 s⁻¹ and a kon of 357000 M⁻¹ s⁻¹.

B3: PTG 70-264 (Protein phosphatase 1 regulatory subunit 3C, residues 70-264) (domain or fragment, human, UniProt Q9UQK1 70-264, looked up)
chain: SQNDWKCSHNQAKKRVVFADSKGLSLTAIHVFSDLPEEPAWDLQFDLLDLNDISSALKHHEEKNLILDFPQPSTDYLSFRSHFQKNFVCLENCSLQERTVTGTVKVKNVSFEKKVQIRITFDSWKNYTDVDCVYMKNVYGGTDSDTFSFAIDLPPVIPTEQKIEFCISYHANGQVFWDNNDGQNYRIVHVQWKPD
notes: GST removed on the column with 3C protease; also called PPP1R3C; protein targeting to glycogen; source: E. coli, co-expressed with GroEL/ES (pGro7), purified (glutathione agarose, SEC); for the crystal co-expressed with PP1 7-300; not shown: GST, N-terminal, cleaved
B3: in assay [6], binding was put at a Kd of 87 nM, the off-rate (koff) was 0.0043 s⁻¹ and the kon is 50000 M⁻¹ s⁻¹.

B4: PTG70-264: recombinant human PTG residues 70–264, encompassing the PP1-binding region and the CBM21 (protein)
chain: B3 chain
modifications: left off: GST, N-terminal, cleaved
B4: the “binding to PP1 (in words)” value in assay [7] is reported as “did not bind PP1 any better”.

B5: PTG peptide 81-107 (peptide, UniProt Q9UQK1 81-107, looked up)
peptide: AKKRVVFADSKGLSLTAIHVFSDLPEE
notes: also called peptide 1; source: synthetic peptide, bought: ProteoGenix SAS
In assay [5], B5 gave a Kd of 14.1 nM, an off-rate (koff) of 0.00295 s⁻¹ and a kon of 208000 M⁻¹ s⁻¹.

B6: CBM21 aa. 132–264: recombinant PTG carbohydrate-binding module 21, residues 132–264 (protein)
chain: KNLILDFPQPSTDYLSFRSHFQKNFVCLENCSLQERTVTGTVKVKNVSFEKKVQIRITFDSWKNYTDVDCVYMKNVYGGTDSDTFSFAIDLPPVIPTEQKIEFCISYHANGQVFWDNNDGQNYRIVHVQWKPD
modifications: left off: His6, N-terminal, cleaved
B6: the results for the “binding to PP1 (in words)” value in assay [7] and in assay [7] (listed as isolated CBM21) were “no interaction was detected” and “undetectable binding”, respectively.
